In US6797467B1, “Compositions and methods for determining interactions of mitochondrial components, and for identifying agents that alter such interactions” (MitoKor, Inc., priority 1999, dated 2004):

Experiments:
CypD rotamase activity = biological target: T1, CypD rotamase activity (Homo sapiens, UniProt P30405); experiment: Rotamase (peptidylprolyl cis-trans isomerase) solvent jump assay; type: biochemical; conditions: relative to reactions without added enzyme; FIG. 12, 13
T1 construct: made in house; host or cells: E. coli (pMK12-GST-huCypD)
Description: Cyclophilin binding to ANT present in the SMP was determined using soluble recombinant GST-cyclophilin D (see Example 10, above). Rotamase (peptidylprolyl cis-trans isomerase) activity of the GST-CypD preparation was determined according to the “solvent jump” method of Kofron et al. (1991 Biochemistry 30: 6127-6134). Briefly, Ala-Ala-cis/trans-Pro-Phe-pNa was used as the rotamase substrate, coupled with α-chymotrypsin cleavage of all trans-Pro containing peptide to yield p-nitroanilide, detected by absorbance at 390 nm.

[1] = biological target: T2, ANT/BR PLS (human ANT3 and bacteriorhodopsin) (Homo sapiens, UniProt P30405); experiment: GST-CypD binding to proteoliposomes reconstituted with huANT3 and bacteriorhodopsin (ANT/BR PLS); conditions: FIG. 14
T2 construct: GST-huCypD: E. coli; Bacteriorhodopsin: purchased
Description: Preformed liposomes were prepared by a freeze/thaw/sonication procedure. Briefly, egg-yolk lecithin (240 mg) was suspended in 3 ml of reconstitution buffer (50 mM NaCl, 10 mM HEPES, pH 7.4). The suspension was pulsed with argon stream to remove oxygen, partially frozen by contacting the vessel with a dry ice/ethanol bath, and sonicated as described above for SMP except the sonication period was for 1 min. The freeze/sonication step was repeated at least 3-4 times until clarification of lipid suspension was achieved.
Small EconoColumns™ (BioRad, Hercules, Calif.) were filled with 1.7 gm of SM-2 BioBeads™ (BioRad), washed with methanol followed by water, and equilibrated with the reconstitution buffer. […] Control (protein-free) liposomes were prepared in parallel by adding 0.5 ml of the elution buffer (50 mM NaCl, 1 mM EDTA, 10 mM Hepes, 1.3% Triton X-100™) to 200 μl of the liposome suspension. Each mixture was vortexed, applied to the BioBeads™ SM-2 column and passed through the column 5-6 times. Formation of proteoliposomes was visualized by apparent turbidity of the solution. Non-entrapped MUP or ATP was removed either during pelleting of the proteoliposomes by centrifugation, or by filtration of the proteoliposome suspension on a column of Sephadex™ G-50 (Pharmacia, Piscataway, N.J.).
Bacteriorhodopsin (BR) was co-reconstituted into the ANT liposomes as follows. […]

[2] = biological target: T3, ANT present in the SMP (recombinant human ANT3) (Homo sapiens, UniProt P30405); experiment: GST-CypD binding to submitochondrial particles (SMP) from T. ni cells expressing His-tagged huANT3; conditions: 2.6 μM GST-CypD, 1 mg SMP; 0 hr, 3 hr, 6 hr; FIG. 11
T3 construct: made in house; host or cells: His-huANT3: submitochondrial particles of baculovirus-infected Trichoplusia ni cells; GST-huCypD: E. coli
Description: SMP preparation was according to a modification of Halestrap et al. (1998 Biochim. Biophys. Acta 1366:79-94), and all steps were performed at 4° C. Starting material was one liter of cell culture, corresponding to 1×10^9 T. ni cells. Cells were pelleted by centrifugation and stored frozen at −20° C. For isolation of mitochondria, the cell pellet was thawed and resuspended in 15 ml of mitochondrial isolation buffer (MIB, all reagents from Sigma, St. Louis, Mo., unless otherwise noted): 0.22 M mannitol, 70 mM sucrose, 10 mM Hepes, 0.2 mM EDTA, 0.2 mM 2-mercaptoethanol (2-ME), pH 7.2 plus a standard protease inhibitor cocktail (Roche Molecular Biochemicals, Indianapolis, Ind.). The suspension was subjected to two freeze-thaw cycles by shell-freezing the container in a dry ice/ETOH bath and then thawing the suspension at room temperature, and was then diluted with 20 ml of MIB. The suspension was next homogenized with 10 strokes in a Potter-Elvehjem homogenizer (rheostat setting 28). The resulting homogenate was further diluted with MIB to a volume of approximately 200 ml and centrifuged at 600×g at 4° C. for 10 min. […] Protein concentration was measured using the Pierce BCA (Pierce Chemical Co., Rockford, Ill.) according to the manufacturer's instructions. […]

[3] = biological target: T4, His-tagged huANT3 : CypD-GST interaction (Homo sapiens, UniProt P30405); experiment: Nickel bead immunoassay of huANT3:huCypD interaction (Western, anti-GST); type: binding
T4 construct: made in house; host or cells: His-huANT3: Trichoplusia ni cells infected with baculovirus (pMK4B-huANT3); GST-huCypD: E. coli (pMK12-GST-huCypD)
T4 sequence (P30405 30-207): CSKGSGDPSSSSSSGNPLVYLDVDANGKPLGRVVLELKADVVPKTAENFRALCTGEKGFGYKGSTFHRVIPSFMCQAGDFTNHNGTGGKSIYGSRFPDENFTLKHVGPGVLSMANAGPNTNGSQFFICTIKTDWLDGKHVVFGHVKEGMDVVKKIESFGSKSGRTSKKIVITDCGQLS
Description: Each portion was suspended in 1 ml of MSB with protease inhibitors (leupeptin, final concentration 10 ug/ml; pepstatin, final concentration 10 ug/ml; aprotinin, final concentration, 2 ug/ml; phenylmethylsulfonyl fluoride {PMSF}, final concentration, 100 μM; all from Sigma Chemical Co., St Louis, Mo.). The resuspended cell suspensions were frozen and thawed twice, then homogenized using a rotating teflon-coated probe and a close-fitting glass container (10 passes). The cellular homogenate was centrifuged (3,700 rpm, approximately 1,500×g) at 4° C. for 5 minutes; this supernatant from the first spin was saved. The pellet was washed with about 500 μl of MSB with protease inhibitors, centrifuged (3,800 rpm, approximately 1,600×g) at 4° C. for 5 minutes, and supernatant from this spin was combined with the supernatant from the first spin. The combined supernatant was centrifuged (14,000 rpm, approximately 20,800×g) at 4° C. for 15 minutes, and the pellet was resuspended in 300 μl of a 1:1 solution of (a) 20 mM MOPS and (b) MSB, wherein both (a) and (b) contain the previously described protease inhibitors. The resultant suspension was frozen and thawed three times.
One hundred (100) μl of T. ni mitochondria (9.83 μg/ml) was thawed slowly on ice and then centrifuged at 4° C. for 15 minutes to pellet mitochondria. […]
The extracts were evaluated by Western analysis. […]

T1 sequence (P30405 30-207): as above
T2 sequence (P30405 30-207): as above
T3 sequence (P30405 30-207): as above

Substance | rotamase activity (CypD rotamase activity) | binding of GST-CypD to ANT/BR PLS [1] | GST-CypD in SMP pellet fractions [2] | amount of CypD-GST retained on beads ([3]; His-tagged huANT3 present (lanes 2', 3') versus absent (lane 1')) | binding of CypD-GST to His-tagged ANT3 on a solid support ([3]; summary statement)
Ek-CypD: CypD liberated from the polyHis fusion tag following enterokinase cleavage | rotamase activity was also demonstrated |  |  |  | 
GST-CypD: recombinant glutathione S-transferase-human cyclophilin D fusion protein expressed from pMK12-GST-huCypD | readily apparent rotamase activity | readily apparent | readily detectable | visibly increased by roughly an order of magnitude | specifically binds
His-CypD: recombinant polyHis-tagged human CypD fusion protein, purified on nickel columns or by FPLC | rotamase activity was also demonstrated |  |  |  | 
